Data taken from patent US10723806B2, “Method of introducing nucleic acid into plant cells” (RIKEN, priority 2012, dated 2020).
Ends that are not written are not given here.

Experiments:
[1] = test system: mitochondria of leaf of Arabidopsis thaliana L.; experiment: Organelle selective gene introduction, Renilla luciferase expression in mitochondria of Arabidopsis thaliana L. leaf; assay type: in vivo; conditions: complex with pDONRcox2p: rluc/gfp
Method: A carrier peptide comprising a mitochondrial transit sequence (Cytochrome c oxidase subunit IV (yeast)) and a polycationic sequence was synthesized. In other words, ([…]) (SEQ ID NO: 43) was synthesized by the solid phase peptide synthesis. The mitochondrial transit sequence is represented by MLSLRQSIRFFK (SEQ ID NO: 44) and the polycationic sequence is represented by KHKHKHKHKHKHKHKHKH) (SEQ ID NO: 22). Then, a complex was prepared from the carrier peptide synthesized and a plasmid vector (pDONRcox2p: rluc/gfp) that can function in mitochondria. In the same manner as in the above Examples, the complex was introduced into a leaf of Arabidopsis thaliana L. and expression of a reporter gene (Renilla Luciferase) in the mitochondria was quantitatively evaluated. Using a promoter (cox) which specifically functions in mitochondria, whether the complex was specifically introduced into the mitochondria was determined.

[2] = test system: Nicotiana benthamiana leaf; experiment: In-vivo transfection of tobacco leaf with RLuc-encoding pDNA complex, Renilla luciferase assay; conditions: for RLuc expression (relative photometric unit/protein weight): peptide alone as carrier of pDNA, N/P ratio 0.5, 12 hours, benthamiana tobacco leaf; for transfection efficiency (RLuc assay) compared to complexes having other N/P ratios: N/P ratio 0.5, tobacco leaf; for incubation time showing the highest transfection efficiency: tobacco leaf, sampled 12 to 144 hours
Method: In-vivo transfection experiment using the tobacco leaf was performed to evaluate an ability of a carrier peptide-pDNA complex to deliver a gene into plant cells through a cell wall. Complexes of pDNA encoding RLuc and GFP serving as a reporter gene with R9-BP 100 and (KH)9-BP100 were directly allowed to permeate into Nicotiana benthamiana leaf. To determine the most efficient N/P ratio of a pDNA complex in the range of 0.1 to 20, a transfection efficiency is quantitatively characterized by use of RLuc assay.
A target plant was prepared as follows. Seeds of benthamiana tobacco were germinated in a pot containing a culture medium, which is a mixture of a soil (Pro-Mix) and vermiculite in a ratio of 2:1. The benthamiana tobacco plant was grown up to three weeks in a plant incubator (Biotron NK System) under constant light irradiation for 24 hours at a temperature of 29° C.
Leaves of benthamiana tobacco were sufficiently spread and directly impregnated with a solution (about 100 μL) of a complex comprising pDNA encoding green fluorescence protein (GFP) and Renilla luciferase (RLuc) by use of a syringe without a needle. The benthamiana tobacco plants thus treated were incubated in a plant incubator separately at a temperature of 29° C. and 21° C. under constant light irradiation for 16 hours per day until 6 days. To quantitatively evaluate RLuc gene expression, Renilla luciferase assay (Promega) was performed in accordance with the protocol provided by a manufacturer (n=4).
To be described in brief, sampling of the leaf impregnated was performed periodically in the range of 12 hours to 144 hours by cutting a square (1 cm^2) around an impregnated section. The samples each were lysed by use of Renilla Luciferase Assay Lysis Buffer (Promega). The lysate was briefly centrifuged and the supernatant was mixed with Renilla Luciferase Assay Substrate and Renilla Luciferase Assay Buffer (Promega). Gene expression was evaluated by a multi-mode microplate reader (Spectra MAX M3, Molecular Devices Corporation) based on the intensity (relative photometric unit) of photoluminescence. The amount of protein in the supernatant was determined by BCA protein assay (Pierce Biotechnology) to obtain a relative photometric unit/protein weight (RLU/mg). A transformant with RLuc gene-encoding pDNA via Agrobacterium (Agrobacterium) was used as a positive control in the experiment.
The statistical difference in transfection efficiency was determined by independent t-test using bilateral distribution. It was regarded that a statistically-significant difference is present at p<0.05. The data obtained in a cell survivability experiment are shown as an average±a standard deviation (n=4).

[3] = Zeta potential of carrier peptide-pDNA complexes; assay type: physicochemical; conditions: pDNA complex
Method: (§1) Two types of pDNA, i.e., green fluorescence protein (GFP)-encoding P35S-GFP (S65T)-TNOS and Renilla luciferase (RLuc)-encoding P35S-RLuc-TNOS, were used as reporter genes. All pDNA molecules were amplified in a competent DH5α E. coli (Takara) and purified by an Endofree Plasmid Giga Kit (Qiagen). To prepare a carrier peptide-pDNA complex, a carrier peptide (0.5 g/L) was mixed with a pDNA solution (about 1.0 mg/mL) so as to have different N/P ratios (0.5, 1, 2, 5, 10 and 20) at 25° C. Immediately after mixing, complexes were characterized by a zeta potential meter (Zetasizer Nano-ZS, Malvern Instruments Ltd) and an atomic force microscope (Seiko Instruments).
(§2) Solutions containing complexes each were diluted with ultra-pure water (MilliQ) up to a final volume of 800 μL and subjected to measurement of zeta potential and size. The zeta potential and zeta shift of the solution samples were measured three times by a zeta potential meter and averages of data were obtained by use of Zetasizer software ver 6.20 (Malvern Instruments Ltd). Dynamic light scattering (DLS) was performed to determine hydrodynamic diameters. Subsequently, polydispersion indexes (PDI) were determined by use of a zeta nanosizer (Zetasizer software ver 6.20) using He—Ne laser (633 nm) at 25° C. and a backscattering detection angle of 173°. Observation by an AFM was performed by fixing a complex solution on cut mica and using a silicon cantilever in air at room temperature in a tapping mode at a spring constant of 1.3 N/m. A cantilever tip rotation effect was obtained by calculation and true dimensions of complexes were obtained by the method previously reported (K. Numata, Y. Kikkawa, T. Tsuge et al., Macromol Biosci 6 (1), 41, 2006; K. Numata, T. Hirota, Y. Kikkawa et al., Biomacromolecules 5 (6), 2186, 2004). For gel retardation assay, each sample (40 μL) containing 1.0 μg of pDNA was mixed with a loading buffer, analyzed on a 1% agarose gel (TAE buffer, 100 V, 30 minutes) and stained with ethidium bromide.

pDNA = experiment: Gel retardation assay (agarose gel electrophoresis) of carrier peptide-pDNA complexes; assay type: physicochemical; conditions: pDNA complex
Method: as §2

[4] = Dynamic light scattering (DLS) size and PDI of carrier peptide-pDNA complexes; assay type: physicochemical; conditions: complex with pDNA
Method: Ionic complexes of carrier peptides (R9-BP100 and (KH)9-BP100) different in N/P ratio and pDNA encoding a reporter gene were prepared and characterized by use of dynamic light scattering (DLS), an atomic force microscope (AFM), a zeta potential meter and agarose gel electrophoresis. The N/P ratio herein refers to the ratio of the number of amine groups from the carrier peptide and the number of phosphate groups from pDNA.
as §1, §2

Arabidopsis thaliana L. = experiment: Introduction of giant DNA (80 kbp luciferase plasmid) into Arabidopsis thaliana L.; assay type: in vivo; conditions: complex with 80 kbp luciferase plasmid, twelve hours after introduction
Method: A plasmid (80 kbp) encoding luciferase was prepared by use of Bacillus subtilis and introduced into Arabidopsis thaliana L. by use of a carrier peptide ((KH)9-BP100). Twelve hours after introduction of the complex, luciferase was extracted from the leaf and subjected to quantitative analysis.

[5] = N/P ratio within the range of 2 to 20

Substance | RLuc expression (relative photometric unit/protein weight) [2] | transfection efficiency (RLuc assay) compared to complexes having other N/P ratios ([2]; pDNA complex) | incubation time showing the highest transfection efficiency ([2]; pDNA complex) | zeta potential ([3]; N/P ratio of 0.5 and 1) | zeta potential [3, 5] | PDI ([4]; N/P ratio 0.5) | Size (average hydrodynamic diameter, DLS) ([4]; N/P ratio 0.5) | PDI ([4]; N/P ratio 1) | Size (average hydrodynamic diameter, DLS) ([4]; N/P ratio 1) | PDI ([4]; N/P ratio 2) | Size (average hydrodynamic diameter, DLS) ([4]; N/P ratio 2) | PDI ([4]; N/P ratio 5) | Size (average hydrodynamic diameter, DLS) ([4]; N/P ratio 5) | PDI ([4]; N/P ratio 10) | Size (average hydrodynamic diameter, DLS) ([4]; N/P ratio 10) | PDI ([4]; N/P ratio 20) | Size (average hydrodynamic diameter, DLS) ([4]; N/P ratio 20) | other results
MLSLRQSIRFFKKHKHKHKHKHKHKHKHKH [SEQ ID NO: 43] |  |  |  |  |  |  |  |  |  |  |  |  |  |  |  |  |  | gene introduction efficiency to mitochondria (Rluc) among N/P=0.5, 1 and 2 [1]: a highly significant difference was shown
KKLFKKILKYL [BP100, cell-penetrating peptide alone, synthesized for controls, reference compound] | 120±70 RLU/mg |  |  |  |  |  |  |  |  |  |  |  |  |  |  |  |  | 
KHKHKHKHKHKHKHKHKHKKLFKKILKYL-NH2 [(KH)9-BP100, tested as ionic complex with pDNA] |  | highest transfection efficiency | 12 h | negative values | positive values | 0.31 | 291 nm | 0.30 | 322 nm | 0.23 | 139 nm | 0.23 | 106 nm | 0.23 | 96 nm | 0.24 | 114 nm | mobility of pDNA in agarose gel electrophoresis (pDNA; N/P ratio up to 10): a small amount of pDNA migrated; luciferase activity in leaf (Arabidopsis thaliana L.): efficient luciferase activity was confirmed
KHKHKHKHKHKHKHKHKH [(KH)9, reference compound] | 340±60 RLU/mg |  |  |  |  |  |  |  |  |  |  |  |  |  |  |  |  | 
RRRRRRRRRKKLFKKILKYL-NH2 [R9-BP100, tested as ionic complex with pDNA] |  | highest transfection efficiency | 12 h | negative values | positive values | 0.34 | 319 nm | 0.38 | 321 nm | 0.21 | 151 nm | 0.21 | 127 nm | 0.23 | 114 nm | 0.25 | 116 nm | time-dependent transfection behavior ([2]; pDNA complex, compared to (KH)9-BP100): quick and short transfection behavior; mobility of pDNA in agarose gel electrophoresis (pDNA; N/P ratio of 0.5 to 2): the same mobility as that of a free pDNA; mobility of pDNA in agarose gel electrophoresis (pDNA; N/P ratio of 10 and 20): no mobility was observed
